Consider 3 molecules from article PMC5762779, “The peroxisomal AAA-ATPase Pex1/Pex6 unfolds substrates by processive threading” (Nature Communications, 2018).

Conditions in all cases: both partners purified
Assay [1] has as its target T1, Pex1-WB2/Pex6-WB2 mutant hexamer (Pex1-E798Q-Strep/His-Pex6-E832Q) (S. cerevisiae, UniProt P24004 1-1043; P33760 1-1030, E798Q | E832Q).
T1 construct: Pex1, S. cerevisiae W303, Walker B D2 mutant; Pex6, S. cerevisiae W303, Walker B D2 mutant; also called Pex1-WB/Pex6-WB; ATPase-deficient Pex1/Pex6; source: E. coli BL21*, co-expressed, purified (Ni-NTA, Streptactin); copies: 3 + 3
Description: HDX-MS; 3 uM Pex15 1-309 and 100 nM Pex1-WB2/Pex6-WB2 hexamer in D2O buffer (60 mM HEPES pD 7.6, 50 mM NaCl, 50 mM KCl, 10% glycerol, 10 mM MgCl2, 0.5 mM EDTA, 5 mM ATP); 15 s deuteration, with and without saturating Pex15.

The target of assay [2] is T2, Pex1-FLAG/His-Pex6 hexamer, wild type (S. cerevisiae, UniProt P24004 1-1043; P33760 1-1030).
T2 construct: Pex1, S. cerevisiae W303; Pex6, S. cerevisiae W303; Heterohexamer with alternating subunits; also called WT Pex1/Pex6; Pex1/Pex6; source: E. coli BL21*, co-expressed, purified (Ni-NTA, anti-FLAG, Superose6); copies: 3 + 3
Description: inhibition of ATPase activity (ATP/NADH coupled enzyme assay); apparent KD from the concentration-dependent inhibition of the ATPase activity of 5 nM Pex1/Pex6 by titrated Pex15; 5 mM ATP, 2 uM BSA; n = 3 technical replicates.
T2 sequence (P24004 whole entry, chain 1 of 2): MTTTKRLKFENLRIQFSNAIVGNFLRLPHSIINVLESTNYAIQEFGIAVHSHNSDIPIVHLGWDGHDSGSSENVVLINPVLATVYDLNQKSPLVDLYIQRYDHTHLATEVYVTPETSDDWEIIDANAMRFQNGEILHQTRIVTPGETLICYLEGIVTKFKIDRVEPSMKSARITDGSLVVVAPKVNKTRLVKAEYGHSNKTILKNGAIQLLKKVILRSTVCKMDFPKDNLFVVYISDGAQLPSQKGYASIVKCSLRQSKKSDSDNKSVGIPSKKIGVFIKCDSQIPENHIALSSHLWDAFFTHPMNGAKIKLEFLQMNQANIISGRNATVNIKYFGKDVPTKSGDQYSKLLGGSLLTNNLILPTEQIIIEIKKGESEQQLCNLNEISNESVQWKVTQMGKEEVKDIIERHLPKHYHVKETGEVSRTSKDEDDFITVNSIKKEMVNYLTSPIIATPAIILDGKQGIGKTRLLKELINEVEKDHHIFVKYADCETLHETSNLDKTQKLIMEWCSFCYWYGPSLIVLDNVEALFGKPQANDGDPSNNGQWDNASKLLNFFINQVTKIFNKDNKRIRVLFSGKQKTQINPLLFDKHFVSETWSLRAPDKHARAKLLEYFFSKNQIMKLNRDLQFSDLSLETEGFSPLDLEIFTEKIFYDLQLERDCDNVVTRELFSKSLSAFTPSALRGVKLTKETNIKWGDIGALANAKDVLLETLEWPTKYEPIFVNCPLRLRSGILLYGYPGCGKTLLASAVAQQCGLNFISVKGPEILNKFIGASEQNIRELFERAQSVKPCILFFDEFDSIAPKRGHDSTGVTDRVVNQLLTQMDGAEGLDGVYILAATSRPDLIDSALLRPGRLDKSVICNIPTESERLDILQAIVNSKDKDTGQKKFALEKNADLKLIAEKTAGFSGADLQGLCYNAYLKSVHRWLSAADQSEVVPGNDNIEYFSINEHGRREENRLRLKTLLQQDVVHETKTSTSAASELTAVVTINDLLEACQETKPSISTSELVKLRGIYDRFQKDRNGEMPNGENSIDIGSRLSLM
T2 sequence (P33760 whole entry, chain 2 of 2): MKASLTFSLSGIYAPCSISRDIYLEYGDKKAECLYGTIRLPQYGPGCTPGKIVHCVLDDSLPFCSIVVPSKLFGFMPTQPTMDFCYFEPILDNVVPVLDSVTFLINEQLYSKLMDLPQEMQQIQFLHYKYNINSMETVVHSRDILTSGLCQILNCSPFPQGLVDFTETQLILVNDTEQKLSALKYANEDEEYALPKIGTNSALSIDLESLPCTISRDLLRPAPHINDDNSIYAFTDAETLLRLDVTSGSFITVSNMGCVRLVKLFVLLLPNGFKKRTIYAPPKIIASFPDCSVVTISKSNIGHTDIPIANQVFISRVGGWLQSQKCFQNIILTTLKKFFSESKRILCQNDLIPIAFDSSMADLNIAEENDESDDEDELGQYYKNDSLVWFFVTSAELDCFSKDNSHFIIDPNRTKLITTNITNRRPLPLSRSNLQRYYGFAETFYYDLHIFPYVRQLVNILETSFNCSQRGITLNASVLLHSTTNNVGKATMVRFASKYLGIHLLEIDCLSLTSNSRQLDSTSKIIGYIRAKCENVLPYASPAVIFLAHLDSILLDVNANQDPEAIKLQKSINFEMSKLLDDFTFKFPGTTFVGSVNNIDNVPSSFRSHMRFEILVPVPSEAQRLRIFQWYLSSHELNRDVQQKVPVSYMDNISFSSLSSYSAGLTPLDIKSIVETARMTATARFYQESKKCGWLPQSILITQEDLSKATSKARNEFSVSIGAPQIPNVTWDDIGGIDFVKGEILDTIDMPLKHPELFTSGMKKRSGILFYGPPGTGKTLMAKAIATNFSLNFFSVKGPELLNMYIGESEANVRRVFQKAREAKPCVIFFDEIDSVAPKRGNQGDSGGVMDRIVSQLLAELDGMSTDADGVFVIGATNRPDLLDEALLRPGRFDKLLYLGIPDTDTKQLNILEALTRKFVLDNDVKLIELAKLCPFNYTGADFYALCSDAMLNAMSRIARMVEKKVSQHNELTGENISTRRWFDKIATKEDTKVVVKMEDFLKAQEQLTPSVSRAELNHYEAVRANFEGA

For assay [3], the target named is T3, Pex1-FLAG/His-Pex6 (V245A, T246A) hexamer (S. cerevisiae, UniProt P24004 1-1043; P33760 1-1030, V245A | T246A).
T3 construct: Pex1, S. cerevisiae W303; also called Pex1/Pex6-VT:AA; Pex6 VT:AA; source: E. coli BL21*, co-expressed, purified (Ni-NTA, anti-FLAG, Superose6); copies: 3 + 3
The assay is described as above.

In assay [4] the target is T2, Pex1-FLAG/His-Pex6 hexamer, wild type. Described as above. This is another data set of the same source.
For assay [5], the target named is T4, fluorescein-labeled Pex5 (Pex5-FAM) (S. cerevisiae, UniProt P35056 1-612, fluorescein-conjugated peptide GGGK-FAM joined by sortase at the LPETGG site at the C-terminus).
T4 construct: Pex5, S. cerevisiae W303 coding region, followed by a sortase site (LPETGG) upstream of the C-terminal 6xHis tag; Likely derived from FLAG-Pex5-His, so an N-terminal FLAG tag may be present; After sortase the C-terminus should read LPET-GGGK(FAM); source: E. coli BL21*, purified, sortase-labelled, Ni-NTA flow-through, Superdex 200 increase; not shown: His6, C-terminal, cleaved
T4 sequence (looked up): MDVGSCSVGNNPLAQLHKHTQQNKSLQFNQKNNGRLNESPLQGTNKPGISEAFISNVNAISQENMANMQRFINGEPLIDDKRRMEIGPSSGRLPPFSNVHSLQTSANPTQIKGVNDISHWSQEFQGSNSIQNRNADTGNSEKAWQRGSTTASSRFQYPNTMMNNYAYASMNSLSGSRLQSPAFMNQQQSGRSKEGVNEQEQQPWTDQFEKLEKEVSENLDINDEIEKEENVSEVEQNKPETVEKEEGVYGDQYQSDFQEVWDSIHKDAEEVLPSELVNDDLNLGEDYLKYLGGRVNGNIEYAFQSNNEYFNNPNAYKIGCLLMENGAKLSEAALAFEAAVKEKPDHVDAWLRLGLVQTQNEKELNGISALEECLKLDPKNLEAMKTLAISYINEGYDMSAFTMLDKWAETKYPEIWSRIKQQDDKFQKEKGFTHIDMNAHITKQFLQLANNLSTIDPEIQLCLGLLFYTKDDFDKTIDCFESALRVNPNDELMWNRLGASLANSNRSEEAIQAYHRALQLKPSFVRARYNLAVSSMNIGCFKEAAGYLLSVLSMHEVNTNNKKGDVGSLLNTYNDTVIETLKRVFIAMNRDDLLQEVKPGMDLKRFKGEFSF
Put plainly: pull-down; 2 μM MBP-Pex15 1-327 on magnetic amylose resin with 350 nM Pex5-FAM, with or without 1 μM Pex1-WB2/Pex6-WB2 and 100 μM SKL peptide, 1 h, 4 °C, 60 mM HEPES pH 7.6, 150 mM NaCl, 150 mM KCl, 10% glycerol, 0.05% Tween-20, 10 mM MgCl2, 0.5 mM EDTA, 5 mM ATP; eluted with 20 mM maltose; Pex5 seen by its fluorescein.

Assay [6] deals with T5, Pex1-FLAG/His-Pex6 hexamer, wild type (S. cerevisiae, UniProt P24004 1-1043; P33760 1-1030).
T5 construct: Pex1, S. cerevisiae W303 coding region; Pex6, S. cerevisiae W303 coding region; also called Pex1/Pex6; wild-type Pex1/Pex6; source: E. coli BL21*, co-expressed, purified (Ni-NTA, anti-FLAG, Superose6); not shown: FLAG, C-terminal, kept; His6, N-terminal, kept; copies: 3 + 3
Description: negative-stain EM reconstruction; 20 nM Pex1-FLAG/His-Pex6 mixed with 200 nM Pex15, 5 min on ice, 5 mM ATP; 3D reconstruction at 23.2 Å.
T5 sequence (P24004 whole entry, chain 1 of 2): as the sequence (P24004 whole entry, chain 1 of 2) above
T5 sequence (P33760 whole entry, chain 2 of 2): as the sequence (P33760 whole entry, chain 2 of 2) above

T3 sequence (P24004 whole entry, chain 1 of 2): as the sequence (P24004 whole entry, chain 1 of 2) above
T3 sequence (P33760 whole entry V245A/T246A, chain 2 of 2): as the sequence (P33760 whole entry, chain 2 of 2) above, with V245A, T246A counted along it
T1 sequence (P24004 whole entry E798Q, chain 1 of 2): as the sequence (P24004 whole entry, chain 1 of 2) above, with E798Q counted along it
T1 sequence (P33760 whole entry E832Q, chain 2 of 2): as the sequence (P33760 whole entry, chain 2 of 2) above, with E832Q counted along it

B1: Pex15 1-309 (cytosolic domain) (domain or fragment, S. cerevisiae, UniProt Q08215 1-309, looked up)
chain: MAASEIMNNLPMHSLDSSLRDLLNDDLFIESDESTKSVNDQRSEVFQECVNLFIKRDIKDCLEKMSEVGFIDITVFKSNPMILDLFVSACDIMPSFTKLGLTLQSEILNIFTLDTPQCIETRKIILGDLSKLLVINKFFRCCIKVIQFNLTDHTEQEEKTLELESIMSDFIFVYITKMRTTIDVVGLQELIEIFIFQVKVKLHHKKPSPNMYWALCKTLPKLSPTLKGLYLSKDVSIEDAILNSIDNKIQKDKAKSKGKQRGVKQKIHHFHEPMLHNSSEEQVKVEDAFNQRTSTDSRLQSTGTAPRKK
notes: likely here too; source: E. coli BL21*, purified (Ni-NTA, tag cleaved with PreScission protease, Superdex 200); not shown: His, C-terminal, cleaved
Regarding B1, the binding result in assay [1] is “binds”. Also, the results for the Kd in assay [2], in assay [3] and in assay [4] were 580 ± 180 nM, 1980 ± 580 nM and 580 nM, respectively.

B2: MBP-Pex15 1-327-FLAG-His (domain or fragment, S. cerevisiae, UniProt Q08215 1-327, looked up)
chain: MAASEIMNNLPMHSLDSSLRDLLNDDLFIESDESTKSVNDQRSEVFQECVNLFIKRDIKDCLEKMSEVGFIDITVFKSNPMILDLFVSACDIMPSFTKLGLTLQSEILNIFTLDTPQCIETRKIILGDLSKLLVINKFFRCCIKVIQFNLTDHTEQEEKTLELESIMSDFIFVYITKMRTTIDVVGLQELIEIFIFQVKVKLHHKKPSPNMYWALCKTLPKLSPTLKGLYLSKDVSIEDAILNSIDNKIQKDKAKSKGKQRGVKQKIHHFHEPMLHNSSEEQVKVEDAFNQRTSTDSRLQSTGTAPRKKNNDITVLAGSFWAVLKHH
notes: Pex15, S. cerevisiae W303, cytosolic domain residues 1-327; not shown: MBP, N-terminal, kept; FLAG, C-terminal, kept; His, C-terminal, kept
In the case of B2, in assay [5], the binding result is “binds”.

B3: Pex15 cytosolic domain (aa 1-327), as used for negative-stain EM (domain or fragment, S. cerevisiae, UniProt Q08215 1-327, looked up)
chain: B2 chain
notes: Pex15, S. cerevisiae W303, cytosolic domain residues 1-327; also called Pex15 cytosolic portion; source: E. coli BL21*, purified (Ni-NTA, Superdex 200); not shown: His, C-terminal, cleaved
Take B3: the “stoichiometry N” value in assay [6] is 3 Pex15 per Pex1/Pex6 hexamer.
